Measurements as given in publication PMC3163439 (Molecular cell, 2009).

B1: PUMA, in vitro translated (natural protein, UniProt Q99ML1 1-193, looked up)
chain: MARARQEGSSPEPVEGLARDSPRPFPLGRLMPSAVSCSLCEPGLPAAPAAPALLPAAYLCAPTAPPAVTAALGGPRWPGGHRSRPRGPRPDGPQPSLSPAQQHLESPVPSAPEALAGGPTQAAPGVRVEEEEWAREIGAQLRRMADDLNAQYERRRQEEQHRHRPSPWRVMYNLFMGLLPLPRDPGAPEMEPN
B2: BIM, in vitro translated (natural protein, UniProt O54918 1-196, looked up)
chain: MAKQPSDVSSECDREGGQLQPAERPPQLRPGAPTSLQTEPQGNPDGEGDRCPHGSPQGPLAPPASPGPFATRSPLFIFVRRSSLLSRSSSGYFSFDTDRSPAPMSCDKSTQTPSPPCQAFNHYLSAMASIRQSQEEPEDLRPEIRIAQELRRIGDEFNETYTRRVFANDYREAEDHPQMVILQLLRFIFRLVWRRH

How the values were obtained:
[1] = target: BAX, in vitro translated (UniProt Q07813); test: co-IP
Sequence of BAX, in vitro translated (UniProt Q07813) (Q07813 whole entry): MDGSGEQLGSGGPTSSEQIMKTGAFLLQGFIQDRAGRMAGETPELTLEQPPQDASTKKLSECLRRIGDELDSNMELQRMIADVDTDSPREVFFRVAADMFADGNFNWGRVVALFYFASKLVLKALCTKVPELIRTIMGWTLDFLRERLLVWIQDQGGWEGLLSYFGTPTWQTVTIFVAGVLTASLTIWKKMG

[2] = target: BAX, in vitro translated (UniProt Q07813 1-192); test: co-IP
Sequence of BAX, in vitro translated (UniProt Q07813 1-192) (Q07813 whole entry): as above

Row | Molecule | stoichiometry N [1] | stoichiometry N [2]
1 | truncated BID (tBID), in vitro translated (domain or fragment) | 1 | 
2 | B1 |  | ~1
3 | B2 |  | ~1
